The experiment has as its target Aldehyde dehydrogenase 7A1 (full-length recombinant human cytosolic ALDH7A1 isoform 2) (human). The experiment in a line: SAXS.

By stoichiometry N is commonly meant a count of units in the complex or per binding partner.

“Aldehyde dehydrogenase 7A1 (full-length recombinant human cytosolic ALDH7A1 isoform 2) (enzyme)”: the stoichiometry N turned out to be 4.

The record behind these values is paper PMC4565128.
